Test results as given in US20210292396A1 (INTERNATIONAL AIDS VACCINE INITIATIVE, published 2021).
Changes are numbered by the printed parent chain.

Tests used:
Experiment in all cases: cell-based or functional assay
[1] = target: HIV Env of isolate HIV-0013095-2.11 (HIV)
[2] = target: HIV Env of isolate BJOX028000.10.3 (HIV)
[3] = target: HIV Env of isolate ZM135M.PL10a (HIV)
[4] = target: HIV Env of isolate T278-50 (HIV)
[5] = target: HIV Env of isolate ZM249M.PL1 (HIV)
[6] = target: HIV Env of isolate 6952.v1.c20 (HIV)
[7] = target: HIV Env of isolate 1394C9G1(Rev-) (HIV)
[8] = target: HIV Env of isolate CNE21 (HIV)
[9] = target: HIV Env of isolate HIV-001428-2.42 (HIV)
[10] = target: HIV Env of isolate 3103.v3.c10 (HIV)
[11] = target: HIV Env of isolate Ce1172_H1 (HIV)
[12] = target: HIV Env of isolate CNE19 (HIV)
[13] = target: HIV Env of isolate X2088_c9 (HIV)
[14] = target: HIV Env of isolate 6535.3 (HIV)
[15] = target: HIV Env of isolate ZM53M.PB12 (HIV)
[16] = target: HIV Env of isolate Du422.1 (HIV)
[17] = target: HIV Env of isolate 1006_11_C3_1601 (HIV)
[18] = target: HIV Env of isolate 231965.c01 (HIV)
[19] = target: HIV Env of isolate Ce704809221_1B3 (HIV)
[20] = target: HIV Env of isolate 6540.v4.c1 (HIV)
[21] = target: HIV Env of isolate CNE17 (HIV)
[22] = target: HIV Env of isolate 6041.v3.c23 (HIV)
[23] = target: HIV Env of isolate HIV-16055-2.3 (HIV)
[24] = target: HIV Env of isolate Ce2060_G9 (HIV)
[25] = target: HIV Env of isolate 246F_C1G (HIV)
[26] = target: HIV Env of isolate 0815.v3.c3 (HIV)
[27] = target: HIV Env of isolate SC05_8C11_2344 (HIV)
[28] = target: HIV Env of isolate 249M_B10 (HIV)
[29] = target: HIV Env of isolate 6811.v7.c18 (HIV)
[30] = target: HIV Env of isolate 1012_11_TC21_3257 (HIV)
[31] = target: HIV Env of isolate TRO.11 (HIV)
[32] = target: HIV Env of isolate X1254_c3 (HIV)
[33] = target: HIV Env of isolate X1193_c1 (HIV)
[34] = target: HIV Env of isolate PVO.4 (HIV)
[35] = target: HIV Env of isolate 6952.v1.c20 (HIV); remark: listed apart in the source
[36] = target: HIV Env of isolate 6535.3 (HIV); remark: listed apart in the source
[37] = target: HIV Env of isolate P1981_C5_3 (HIV)
[38] = target: HIV Env of isolate 6480.v4.c25 (HIV)
[39] = target: HIV Env of isolate 6041.v3.c23 (HIV); remark: listed apart in the source
[40] = target: HIV Env of isolate C1080.c03 (HIV)
[41] = target: HIV Env of isolate 246F_C1G (HIV); remark: listed apart in the source
[42] = target: HIV Env of isolate T250-4 (HIV)
[43] = target: HIV Env of isolate R2184.c04 (HIV)
[44] = target: HIV Env of isolate 6811.v7.c18 (HIV); remark: listed apart in the source
[45] = target: HIV Env of isolate C3347.c11 (HIV)

B1: ePGT121.15.H1.L1 (antibody, V domains shown)
VH: QMQLQESGPGLVKPGETLSLTCSVSGASISSSYWSWLRETPGKGLEWIGYTHHSGDTNYAPSLKSRVHLGLHPSKNQVSLSLTSVTAADTAVYYCARTLHGRRIYGVVAFNEWFTYFYWEVWGNGTQVTVSS
VL: SDISVAPGETVRISCGGESIGSRAVQWYQHRAGQAPKLIIYNNQDRPPGIPERFSGSPDIDFGTTATLTITNVEAGDEATYYCHIWDSRRPTNWVFGGGTTLTVL
[1]
  neutralization (Table 6 value): 1.07
[2]
  neutralization (Table 6 value): 0.0278
[3]
  neutralization (Table 6 value): 0.11
[4]
  neutralization (Table 6 value): 0.0232
[5]
  neutralization (Table 6 value): 0.00404
[6]
  neutralization (Table 6 value): 0.00081
[7]
  neutralization (Table 6 value): 0.00403
[8]
  neutralization (Table 6 value): 0.000929
[9]
  neutralization (Table 6 value): 0.00153
[10]
  neutralization (Table 6 value): 0.00509
[11]
  neutralization (Table 6 value): 0.00075
[12]
  neutralization (Table 6 value): 0.00103
[13]
  neutralization (Table 6 value): 0.00147
[14]
  neutralization (Table 6 value): 0.00121
[15]
  neutralization (Table 6 value): 0.00206
[16]
  neutralization (Table 6 value): 0.00243
[17]
  neutralization (Table 6 value): 0.00195
[18]
  neutralization (Table 6 value): 0.68
[19]
  neutralization (Table 6 value): 0.00162
[20]
  neutralization (Table 6 value): 0.249
[21]
  neutralization (Table 6 value): 0.0106
[22]
  neutralization (Table 6 value): 0.396
[23]
  neutralization (Table 6 value): 1.07
[24]
  neutralization (Table 6 value): 0.0102
[25]
  neutralization (Table 6 value): 0.00428
[26]
  neutralization (Table 6 value): 0.00167
[27]
  neutralization (Table 6 value): 0.00762
[28]
  neutralization (Table 6 value): 0.00639
[29]
  neutralization (Table 6 value): 0.00109
[30]
  neutralization (Table 6 value): 0.00262
[31]
  neutralization (Table 6 value): 0.00156
[32]
  neutralization (Table 6 value): 0.00299
[33]
  neutralization (Table 6 value): 0.000256
[34]
  neutralization IC50: 0.4 ng/mL
[35]
  neutralization IC50: 0.9 ng/mL
[36]
  neutralization IC50: 0.3 ng/mL
[37]
  neutralization IC50: 1.4 ng/mL
[38]
  neutralization IC50: 1.2 ng/mL
[39]
  neutralization IC50: 12400 ng/mL
[40]
  neutralization IC50: > 50000 ng/mL
[41]
  neutralization IC50: 1.3 ng/mL
[42]
  neutralization IC50: 0.2 ng/mL
[43]
  neutralization IC50: > 50000 ng/mL
[44]
  neutralization IC50: 1.2 ng/mL
[45]
  neutralization IC50: > 50000 ng/mL

B2: ePGT121.15.H6.L1 (antibody, V domains shown)
VH: B1 VH with W113F, N124K
VL: B1 VL
[1]
  neutralization (Table 6 value): 0.635
[2]
  neutralization (Table 6 value): 0.00171
[3]
  neutralization (Table 6 value): 0.168
[4]
  neutralization (Table 6 value): 0.0263
[5]
  neutralization (Table 6 value): 0.0127
[6]
  neutralization (Table 6 value): 0.000793
[7]
  neutralization (Table 6 value): 0.00288
[8]
  neutralization (Table 6 value): 0.00124
[9]
  neutralization (Table 6 value): 0.00181
[10]
  neutralization (Table 6 value): 0.00513
[11]
  neutralization (Table 6 value): 0.000952
[12]
  neutralization (Table 6 value): 0.000806
[13]
  neutralization (Table 6 value): 0.00108
[14]
  neutralization (Table 6 value): 0.00121
[15]
  neutralization (Table 6 value): 0.00204
[16]
  neutralization (Table 6 value): 0.00264
[17]
  neutralization (Table 6 value): 0.00214
[18]
  neutralization (Table 6 value): 1.27
[19]
  neutralization (Table 6 value): 0.00231
[20]
  neutralization (Table 6 value): 0.612
[21]
  neutralization (Table 6 value): 0.0101
[22]
  neutralization (Table 6 value): 0.417
[23]
  neutralization (Table 6 value): 0.635
[24]
  neutralization (Table 6 value): 0.0369
[25]
  neutralization (Table 6 value): 0.00278
[26]
  neutralization (Table 6 value): 0.00022
[27]
  neutralization (Table 6 value): 0.00473
[28]
  neutralization (Table 6 value): 0.0118
[29]
  neutralization (Table 6 value): 0.00114
[30]
  neutralization (Table 6 value): 0.00194
[31]
  neutralization (Table 6 value): 0.0014
[32]
  neutralization (Table 6 value): 0.00272
[33]
  neutralization (Table 6 value): 0.000518

B3: PGT-121 (antibody, V domains shown)
VH: QMQLQESGPGLVKPSETLSLTCSVSGASISDSYWSWIRRSPGKGLEWIGYVHKSGDTNYSPSLKSRVNLSLDTSKNQVSLSLVAATAADSGKYYCARTLHGRRIYGIVAFNEWFTYFYMDVWGNGTQVTVSS
VL: SDISVAPGETARISCGEKSLGSRAVQWYQHRAGQAPSLIIYNNQDRPSGIPERFSGSPDSPFGTTATLTITSVEAGDEADYYCHIWDSRVPTKWVFGGGTTLTVLG
[3]
  neutralization (Table 6 value): 1.32
[6]
  neutralization (Table 6 value): 0.000292
[7]
  neutralization (Table 6 value): 0.122
[8]
  neutralization (Table 6 value): 0.00525
[9]
  neutralization (Table 6 value): 0.0111
[10]
  neutralization (Table 6 value): 0.0206
[11]
  neutralization (Table 6 value): 0.00693
[12]
  neutralization (Table 6 value): 0.00315
[13]
  neutralization (Table 6 value): 0.00214
[14]
  neutralization (Table 6 value): 0.00325
[15]
  neutralization (Table 6 value): 0.00038
[16]
  neutralization (Table 6 value): 0.00172
[17]
  neutralization (Table 6 value): 0.00382
[19]
  neutralization (Table 6 value): 0.028
[21]
  neutralization (Table 6 value): 0.225
[25]
  neutralization (Table 6 value): 0.0215
[26]
  neutralization (Table 6 value): 7.9e-05
[27]
  neutralization (Table 6 value): 0.0278
[29]
  neutralization (Table 6 value): 0.00125
[30]
  neutralization (Table 6 value): 0.00917
[31]
  neutralization (Table 6 value): 0.00843
[32]
  neutralization (Table 6 value): 0.0206
[33]
  neutralization (Table 6 value): 0.000417
[34]
  neutralization IC50: 98 ng/mL
[35]
  neutralization IC50: 56 ng/mL
[36]
  neutralization IC50: 2 ng/mL
[37]
  neutralization IC50: 1 ng/mL
[38]
  neutralization IC50: 1 ng/mL
[39]
  neutralization IC50: > 50000 ng/mL
[40]
  neutralization IC50: > 50000 ng/mL
[41]
  neutralization IC50: 41 ng/mL
[42]
  neutralization IC50: 1 ng/mL
[43]
  neutralization IC50: > 50000 ng/mL
[44]
  neutralization IC50: 1 ng/mL
[45]
  neutralization IC50: > 50000 ng/mL
